For orientation: EC50 (read off the curve) means the concentration giving half of the maximal effect.

Residue numbers refer to the chain shown, from its start. Non-standard residues stand in square brackets, D forms with d. No end group written: not given here. Ahx = NCCCCCC(=O)O

To fix the notation:
T1: A199 N-terminal neo-epitope peptide AGQPLQ-Acp-C (SEQ ID NO:51) conjugated to BSA (human, not fully specified (residue 8); printed as AGQPLQ-Acp-C; also: C-terminal Cys conjugated to BSA carrier)
T1 construct: BSA carrier; also called A199-BSA peptide
T1 peptide: AGQPLQ[Ahx]C

B1: 23D5, recombinant IgG2c antibody (antibody, V domains shown)
VH: EVQLVESGGGLVKPGGSLKLSCSASGFTFSRYAMSWVRQSPEKRLEWVAEINSGGSYSFYSDTVTGRFTISRDNAKNTLFLEMSSLRSEDTAIYYCARQLSGTDYYGTDYWGQGTSVTVSS
VL: DVLMTQTPLSLPVSHGDQASISCRSSQSLLYSNGNTYLEWYLQKPGQSPKLLIYKVSNRFSGVPDRFSGSGSGTDFTLKISRVEAEDLGVYYCFQGSHVPYTFGGGTKLEIK
B2: 17G4, recombinant IgG2c antibody (antibody, V domains shown)
VH: B1 VH with S101T
VL: B1 VL
B3: 7C7, recombinant IgG2c antibody (antibody, V domains shown)
VH: EVQLVESGGGLVKPGGSLRLSCAASGFTFSSFAMSWVRQSPERRLEWVAEISRGGGYAFYSDTVTGRFTISRDNARNTLFLEMGSLRSEDTAMYYCSRQLTGTDYYAMDYWGQGTSVTVSS
VL: B1 VL with M4L, P12F, H15L, L29I, L30V, S32T, H98Q, I111L
B4: 7B10, recombinant IgG2c antibody (antibody, V domains shown)
VH: AVQLVESGGGLVKPGRSLKLSCAASGFTFSSYAMSWVRQFPDKRLDWVAEISSGGGSTNYLDTVTGRFTISRDNAKNTLYLEMNSLRSEDTAMYYCARQLVGTDYYGTDYWGQGTSVTVSS
VL: B1 VL with H15L, S28N, L29I, L30V
notes: also called 7610
B5: 4E6, recombinant IgG2c antibody (antibody, V domains shown)
VH: EVQLVESGGDLVKPGGSLKLSCAASGFTFSSYAMSWVRQSPEKRLEWVAEISGSGSRDHYTDSVTGRFTVSRDNAKNTLYLEMSSLRSEDTAIYYCARQLTGTDYYGTDYWGQGTSVTVSS
VL: B1 VL with T7I, H15L, L29I, L30V, K44R, V99L
notes: also called recombinant anti-G200 antibody 4E6
B6: 28F2, recombinant IgG2c antibody (antibody, V domains shown)
VH: QIQLVQSGPDLKKPGETVKISCKASGYTFTNYAMHWMKQAPGKALKWMGWINTYTGEPTFADDFKGRFAFSLETSASTAYLQINSLKNEDMATYFCAREGYYDRSHYFDYWGQGTTLTVSS
VL: B1 VL with H15L, Q27L, L30V, Y31H, S32G, N33D, F94L, V99I, Y101F, G105S

One assay has as its target T1, A199 N-terminal neo-epitope peptide …. Description: direct ELISA, target coated at 1 ug/ml, antibody in 3-fold dilutions from 500 ng/ml, OD 450 nm. As for the experimental part: (§1) Selectivity evaluation of recombinant antibodies by direct ELISA: The direct ELISA described below was used to evaluate the binding selectivity of the recombinant antibodies produced in Example 11.
(§2) The screening was performed according to standard ELISA protocols. Briefly, 1 μg/ml solutions of BSA-conjugated neo-epitope peptides, recombinant C-terminal ApoE fragment, negative control peptide and full-length ApoE were prepared by dilution in PBS. 50 μl/well were added to an ELISA half-area 96 well microtiter plate, the plate was sealed with adhesive sealer and incubated over night at 4° C. After discarding the solution, the plates were blocked with 150 μl/well of protein-free blocking solution (Pierce) for 1 h at room temperature with shake (900 rpm). The plates were washed four times with washing buffer containing 0.28 mM NaH₂PO₄, 2.5 mM Na₂HPO₄, 150 mM NaCl, 0.1% TWEEN®-20 and 0.0075% Kathon CG. Generated recombinant antibodies of interest were serially diluted 3-fold with a starting dilution at 0.5 μg/ml (mixed 1:1 with dilution buffer: PBS with 0.1% BSA and 0.05% TWEEN®-20). An anti-ApoE C-terminal antibody was used as a reference antibody (ApoE E-8 mouse monoclonal, cat. no. sc-393302; Santa Cruz Biotechnology). 50 μl/well were added into the ELISA plates and incubated for 2 h at room temperature with shake (900 rpm). The plates were washed four times as described previously. […] After another wash (as described previously), 50 μl/well of K-Blue® aqueous substrate (Neogen) were added, and the reaction was stopped after 5-15 min with 50 μl/well of 0.5 M […]. The optical density at 450 nm was read using an ELISA reader (Tecan).
On to B1, for which the binding result was “no binding (tested: 500 ng/ml)”.
The same measure, in the same setting: the result for B2 reads “no binding (tested: 500 ng/ml)”.
For B3, the binding result is on record as “no binding (tested: 500 ng/ml)”.
As to B4, the binding result is on record as “no binding (tested: 500 ng/ml)”.
As to B5, the binding result is “no binding (tested: 500 ng/ml)”.

In the next assay the target is T2, His-tagged recombinant full-length ApoE4, 10xHIS-ApoE4(1-299) (human, UniProt P02649 19-317).
T2 construct: also called ApoE4-FL-HIS
T2 sequence (P02649 other isoform, or with tags, fused parts or gaps limits assumed): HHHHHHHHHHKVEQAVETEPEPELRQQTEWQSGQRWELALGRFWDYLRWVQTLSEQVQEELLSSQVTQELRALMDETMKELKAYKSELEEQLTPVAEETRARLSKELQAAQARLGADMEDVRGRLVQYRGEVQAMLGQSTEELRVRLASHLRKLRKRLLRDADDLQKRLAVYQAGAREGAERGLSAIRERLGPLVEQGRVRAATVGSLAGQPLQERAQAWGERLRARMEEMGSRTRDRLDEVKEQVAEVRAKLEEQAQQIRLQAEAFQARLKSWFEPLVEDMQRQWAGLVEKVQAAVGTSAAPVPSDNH
The assay is described as above. How it is done: as §1, §2
On to B1, for which the binding result is reported as “no binding (tested: 500 ng/ml)”.
Same read-out and setting: for B6 the value was “no binding (tested: 500 ng/ml)”; for B2, “no binding (tested: 500 ng/ml)”; for B4, “no binding (tested: 500 ng/ml)”.
Turning to B5, the binding result is listed as “no binding (tested: 500 ng/ml)”.

A further assay has as its target T1, A199 N-terminal neo-epitope peptide …. Description: direct ELISA, second protocol; proteins coated at 0.1 uM, BSA peptides at 1 ug/ml; antibody in 3-fold dilutions from 3000 ng/ml; blank reduced OD 450 nm. As for the experimental part:
as §2, with “Generated recombinant antibodies of interest were serially diluted 3-fold with a starting dilution at 0.5 μg/ml (mixed 1:1 with dilution buffer: PBS with 0.1% BSA and 0.05% TWEEN®-20).” left out, “(Tecan). The optical density was plotted against the antibody concentration to generate concentration-response curves (FIG. 16).” for “(Tecan).”
These were added in the same molarity (0.1 μM) to provide an equal number of molecules available for binding by the antibodies (BSA-coupled peptides were coated at 1 μg/ml as before).
In the case of B6, the “EC50 (read off the curve)” value was roughly 0.1 µg/mL.

(Values after patent publication US20220242939A1 (BIOARCTIC, published 2022).)
